What was measured:
[1] = tested on: primary human hepatocytes; test: Palmitate loading (lipotoxicity) of primary human hepatocytes; assay type: cell-based
Procedure: Palmitate:BSA conjugated solution in the ratio of 6:1 was prepared as described earlier (Alsabeeh et al., 2018). Palmitate (0.5 mM) conjugated in fatty acids free BSA was used to treated cells as described in figure legends; 0.5% BSA solution was used as control. […]
Primary human hepatocytes were seeded on 8-well chamber slides (1×10^4 cells/well). For this experiment, cells were not serum-starved prior to palmitate treatment. 24 hours following palmitate stimulation, cells were washed, incubated with 25 μM of DCFDA solution (ab113851, Abcam) for 45 minutes at 37° C. in the dark, and rinsed with dilution buffer according to the manufacturer's protocol. Live cells with positive DCF staining were imaged with filter set appropriate for fluorescein (FITC) using a fluorescence microscope (Leica). […]
Western blots were carried out on total protein extracts from hepatocytes and liver tissues. Hepatocyte and liver tissue lysates were homogenized in RIPA Lysis and Extraction Buffer (89901, Thermo Scientific) containing protease and phosphatase inhibitors (Roche). Protein lysates were separated by SDS-PAGE and transferred to PVDF membranes. Protein bands were visualized using the ECL detection system (Pierce) with the appropriate secondary antibodies: anti-rabbit HRP or anti-mouse HRP.

ERK = ERK activation in HSCs (Western blot); assay type: cell-based, human; settings: HSCs, antibody 2 μg/ml
Procedure: Western blots were carried out on total protein extracts from HSCs and liver tissues. Both cells and frozen tissues were homogenized in radioimmunoprecipitation assay (RIPA) buffer containing protease and phosphatase inhibitors (Thermo Scientifics), followed by centrifugation to clear the lysate. Protein concentrations were determined by Bradford assay (Bio-Rad). Equal amount of protein lysates were separated by SDS-PAGE, transferred to PVDF membrane, and subjected to immunoblot analysis for the indicated primary antibodies. Proteins were visualized using the ECL detection system (Pierce) with the appropriate secondary antibodies.

[2] = Blood pharmacokinetics and biodistribution of 125I-X209; assay type: in vivo, mouse
Procedure: C57BL/6J mice (10-12-weeks old) were retro-orbitally injected (left eye) with 100 μl of freshly radiolabeled ^125I-X209 (5 μCi, 2.5 μg) in PBS. Mice were anesthetized with 2% isoflurane and blood were collected at several time points (2, 5, 10, 15, 30 m, 1, 2, 4, 6, 8 h, 1, 2, 3, 7, 14 and 21 days) post injection via submandibular bleeding. For biodistribution studies, blood was collected via cardiac puncture and tissues were harvested at the following time points: 1, 4 h, 1, 3, 7, 14, 21 days post injection. The radioactivity contents were measured using a gamma counter (2480 Wizard2, Perkin Elmer) with decay-corrections (100× dilution of 100 μl dose). The measured radioactivity was normalized to % injected dose/g tissue.

mice with PDL = test: Pancreatic duct ligation (PDL) model of pancreatic injury; assay type: in vivo, mouse; settings: 14 days
Excerpt: FIGS. 50A to 50C. Schematic, box plot and images relating to the effect of antagonism of IL-11 mediated signalling in a pancreatic duct ligation (PDL) model of pancreatic injury. (A) Schematic representation of experiment in which pancreatic injury is induced by PDL, and wherein mice are subsequently treated with neutralising anti-IL-11 RA antibody or IgG isotype control antibody. (B) Ligated lobe weight for mice treated with neutralising anti-IL-11 RA antibody or IgG isotype control antibody at 14 days. (C) Representative images of Masson's Trichrome staining of pancreatic tissue from mice treated with neutralising anti-IL-11 RA antibody or IgG isotype control antibody at 14 days.

HFMCD-fed mice = test: Early-stage HFMCD NASH, antibody from week 1; assay type: in vivo, mouse; settings: for development of fibrosis / lipid droplets in livers: HFMCD, 10 mg/kg biweekly from week 1; for hepatic lipid metabolism (lipogenesis and β-oxidation gene expression): RNA-seq, compared to IgG
Procedure: FIGS. 22A to 22K. Neutralisation of Il-11 signalling reverses liver damage in early stage NASH. (A) Relative liver mRNA expression of fibrosis and inflammation markers from mice fed with NC or HFMCD diets for the indicated time points. (B) Schematic of the anti-IL-11 therapy experiment early on in the HFMCD diet NASH model. Antibody treatments were started 1 week after the start of NASH diet when X209, X203, or IgG (10 mg/kg, biweekly) were administered intraperitoneally for 5 weeks. (C) Representative gross liver images and (D) Masson's Trichrome stained images of livers (scale bars, 100 μm) after 5 weeks of IgG or X209 treatments. (E) Hepatic triglyceride levels (n≥5/group), (F) liver hydroxyproline content of X209- and IgG-treated mice (n≥5/group), (G) serum ALT levels (n≥5/group). (H) Immunofluorescence images of IL6R and IL11RA expression in hepatocytes (scale bars, 100 μm). Dose-dependent effect of (I) IL-11 on ALT in hepatocyte supernatant and (J) stress fibers formation (rhodamine-phalloidin staining) in hepatocyte (scale bars, 200 μm). (K) IL-11 protein is secreted from primary human hepatocytes stimulated with TGFβ1 (5 ng/ml); 24 h. (E) Data are shown as box-and-whisker with median (middle line), 25th-75th percentiles (box) and min-max percentiles (whiskers); (F-G,I,K) data are shown as mean±s.d. (E) Tukey-corrected Student's t-test; (F,G) two-way ANOVA; (I,K) two-tailed Dunnett's test. FC: fold change; NC: normal chow; HFMCD: high fat methionine- and choline-deficient.
High fat methionine and choline-deficient (HFMCD) diet fed wild-type mice Five week old male C57BL/6N mice were fed with Methionine and Choline deficient diet supplemented with 60 kcal % fat (A060713011316, Research Diets); control mice were fed with normal chow (NC, Specialty Feeds). Durations of diet and antibody therapies are described.
Immune cells were isolated from liver as described previously 20. Liver tissues were minced and digested with 100 μg/ml Collagenase IV and 20 U/ml DNase I, at 37° C. for 1 h. Following digestion, cells were passed through strainer to obtain single cell suspension and subjected to percoll gradient centrifugation for isolation of immune cells. CyTOF staining was performed as previously described 21. Cells were thawed and stained with cisplatin (Fluidigm) to identify live cells, followed by staining with metal-conjugated CD45 antibody, for barcoding purpose. After barcoding, cells were stained with metal-conjugated cell surface antibody (Ly6C). Cells were then fixed with 1.6% PFA, permeabilized with 100% methanol, and subjected to intracellular antibody staining (TGFβ1). Cells were labeled with DNA intercalator before acquisition on Helios mass cytometer (Fluidigm). For analysis, first live single cells were identified, followed by debarcoding to identify individual samples. Manual gating was performed using Flowjo software (Flowjo).

| Molecule | palmitate-induced signaling events ([1]; Western blot) | secretion of cytokines (IL11, IL6, CCL2, CCL5) ([1]; X209 2 μg/ml or sgp130 1 μg/ml) | NOX4 upregulation by palmitate ([1]; palmitate) | caspase3 activation ([1]; palmitate) | fatty acid synthase (FASN) upregulation ([1]; palmitate) | triglyceride accumulation ([1]; palmitate) | ROS production ([1]; sFA-loaded hepatocytes) | glutathione (GSH) levels ([1]; sFA-loaded hepatocytes) | ERK phosphorylation downstream of all factors, including IL-11 (ERK) | liver uptake ([2]; 125I-X209, mice) | in vivo half-life ([2]; 125I-X209, retro-orbital injection, mice) | pancreatic fibrosis (mice with PDL) | reduction in pancreatic tissue associated with PDL (mice with PDL) | circulating TGFβ1 levels (HFMCD-fed mice; HFMCD diet) | development of fibrosis (HFMCD-fed mice) | lipid droplets in livers (HFMCD-fed mice) | hepatic lipid metabolism (lipogenesis and β-oxidation gene expression) (HFMCD-fed mice) | Ly6C+veTGFβ1+ve cells (HFMCD-fed mice; during steatohepatitis, CyTOF) | immune cells in liver (HFMCD-fed mice; during steatohepatitis, CyTOF) |
| --- | --- | --- | --- | --- | --- | --- | --- | --- | --- | --- | --- | --- | --- | --- | --- | --- | --- | --- | --- |
| X209: mouse anti-mouse IL-11Rα IgG (IgG1κ), neutralising; VH SEQ ID NO:24, VL SEQ ID NO:25 (antibody, V domains shown, Enx209 VH; Enx209 VL) VH: QVQLQQPGAELVRPGSSVKLSCKASGYTFTNYWMHWLKQRPVQGLEWIGNIGPSDSKTHYNQKFKDKATLTVDKSSSTAYMQLNSLTSEDSAVYYCARGDYVLFTYWGQGTLVTVSA VL: DIVLTQSPATLSLSPGERATLSCRASQSISNNLHWYQQKSHEAPRLLIKYASQSISGIPARFSGSGSGTDFTLSFSSLETEDFAVYFCQQSYSWPLTFGQGTKLEIK | largely inhibited | reduced the secretion of all cytokines | inhibited | largely inhibited | largely inhibited | largely inhibited | prevent ROS production | partial restoration | abolished | good liver uptake | approximately 18 days | reduced pancreatic fibrosis | inhibited | reduced | nor did these mice develop fibrosis | not seen | more so than X203, improved hepatic lipid metabolism | specific reduction | fewer immune cells |
| X203: mouse anti-mouse IL-11 IgG (IgG1κ), neutralising; VH SEQ ID NO:22, VL SEQ ID NO:23 (antibody, V domains shown, Enx203 VH; Enx203 VL) VH: EVQLQQSGPELVKPGASVKIPCKASGYTFTDYNMDWVKQSHGKSLEWIGDINPHNGGPIYNQKFTGKATLTVDKSSSTAYMELRSLTSEDTAVYYCARGELGHWYFDVWGTGTTVTVSS VL: DIVLTQSPASLAVSLGQRATISCRASKSVSTSGYSYIHWYQQKPGQPPKLLIYLASNLDSGVPARFSGSGSGTDFTLNIHPVEEEDAATYYCQHSRDLPPTFGGGTKLEIK |  |  |  |  |  |  |  |  |  |  |  |  |  |  | nor did these mice develop fibrosis | not seen | improved hepatic lipid metabolism |  |  |

Source: patent US11813311B2, “Treatment and prevention of metabolic diseases” (Singapore Health Services PTE LTD., priority 2019, dated 2023)
